Results on one variant are retold here after IntAct's records for PubMed 21423209.

The labels stand for the following.
B1: Catenin beta-1 (Homo sapiens), P35222 (parent)
chain: MATQADLMELDMAMEPDRKAAVSHWQQQSYLDSGIHSGATTTAPSLSGKGNPEEEDVDTSQVLYEWEQGFSQSFTQEQVADIDGQYAMTRAQRVRAAMFPETLDEGMQIPSTQFDAAHPTNVQRLAEPSQMLKHAVVNLINYQDDAELATRAIPELTKLLNDEDQVVVNKAAVMVHQLSKKEASRHAIMRSPQMVSAIVRTMQNTNDVETARCTAGTLHNLSHHREGLLAIFKSGGIPALVKMLGSPVDSVLFYAITTLHNLLLHQEGAKMAVRLAGGLQKMVALLNKTNVKFLAITTDCLQILAYGNQESKLIILASGGPQALVNIMRTYTYEKLLWTTSRVLKVLSVCSSNKPAIVEAGGMQALGLHLTDPSQRLVQNCLWTLRNLSDAATKQEGMEGLLGTLVQLLGSDDINVVTCAAGILSNLTCNNYKNKMMVCQVGGIEALVRTVLRAGDREDITEPAICALRHLTSRHQEAEMAQNAVRLHYGLPVVVKLLHPPSHWPLIKATVGLIRNLALCPANHAPLREQGAIPRLVQLLVRAHQDTQRRTSMGGTQQQFVEGVRMEEIVEGCTGALHILARDVHNRIVIRGLNTIPLFVQLLYSPIENIQRVAAGVLCELAQDKEAAEAIEAEGATAPLTELLHSRNEGVATYAAAVLFRMSEDKPQDYKKRLSVELTSSLFRTEPMAWNETADLGLDIGAQGEPLGYRQDDPSYRSFHSGGYGQDALGMDPMMEHEMGGHHPGADYPVDGLPDLGHAQDLMDGLPPGDSNQLAWFDTDL

The test covers variants of B1. Particulars: with ron_mouse Mst1r.
For the variant Y654F;Y670F, the “effect of a mutation on the interaction” value is “disrupting interaction”.
